{"source": "patent CN116063506A", "about": "(HUADAO SHANGHAI BIOMEDICAL CO LTD, dated 2023)", "binders": {"B1": {"name": "分离的抗体(标记为CD4-14) (antibody, V domains shown)", "VH": "QVQLVQSGPELKKPGASVKVSCKASGYTFTDYVIHWVKQATGQGLEWIGEIYPGSGSAYSNAKFKDRVTMTADKSSNTAYMELSSLTSDDTAVYFCARRGNGTGFAYWGQGTLVTVSS", "VL": "DIVLTQSPASLAVSLGQRATITCKAGQSVDYDGDSYMNWYQQKPGQPPKLLIYVASNLESGIPARFSGSGSGTDFTLNIHPVEENDAATYYCQQSYKDPLTFGQGTKLEIK", "notes": "also called 分离抗体; 本发明的分离抗体"}}, "molecular_target": "T1, CD4抗原 (表面抗原分化簇4, Cluster of Differentiation 4) (UniProt P01730 26-458, limits assumed)", "T1 construct": "whole, on cells; also called 细胞表面的CD4抗原; Nalm6-CD4", "experiment": "flow cytometry on Nalm6-CD4 cells; antibody from 4 μg/mL in 4-fold dilutions, 10 concentrations; APC goat anti-mouse IgG secondary", "data": [{"binder": "B1", "values": [{"measurement": "EC50", "result": 0.152, "unit": "µg/mL"}]}]}
